# Assay results: patent publication US20220348651A1, “ENTPD2 ANTIBODIES, COMBINATION THERAPIES, AND METHODS OF USING THE ANTIBODIES AND COMBINATION THERAPIES” (Novartis AG, priority 2019, published 2022)
# T1: RKO cells (Homo sapiens, UniProt Q9Y5L3)
# T1 construct: colorectal cancer cells with endogenous ENTPD2 expression; host or cells: RKO
# T1 sequence (Q9Y5L3 1-495): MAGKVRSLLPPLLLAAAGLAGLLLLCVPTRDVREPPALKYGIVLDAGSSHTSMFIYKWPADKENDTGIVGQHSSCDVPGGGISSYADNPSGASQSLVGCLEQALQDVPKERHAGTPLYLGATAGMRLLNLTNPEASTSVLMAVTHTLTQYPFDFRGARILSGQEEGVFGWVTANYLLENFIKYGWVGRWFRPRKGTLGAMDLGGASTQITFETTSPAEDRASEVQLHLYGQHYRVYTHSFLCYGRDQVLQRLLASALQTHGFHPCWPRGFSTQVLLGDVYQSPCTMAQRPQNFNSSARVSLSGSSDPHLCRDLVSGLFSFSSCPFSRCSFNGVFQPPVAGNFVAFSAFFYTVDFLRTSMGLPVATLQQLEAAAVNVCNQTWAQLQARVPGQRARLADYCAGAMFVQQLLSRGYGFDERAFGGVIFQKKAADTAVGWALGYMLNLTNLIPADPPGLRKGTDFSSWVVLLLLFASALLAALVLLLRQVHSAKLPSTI
# T2: Human ENTPD1 (Homo sapiens, UniProt P49961)
# T2 construct: expressed in transfected cells; host or cells: NIH/3T3 (retroviral transduction, FACS-sorted)
# T2 sequence (P49961 1-510): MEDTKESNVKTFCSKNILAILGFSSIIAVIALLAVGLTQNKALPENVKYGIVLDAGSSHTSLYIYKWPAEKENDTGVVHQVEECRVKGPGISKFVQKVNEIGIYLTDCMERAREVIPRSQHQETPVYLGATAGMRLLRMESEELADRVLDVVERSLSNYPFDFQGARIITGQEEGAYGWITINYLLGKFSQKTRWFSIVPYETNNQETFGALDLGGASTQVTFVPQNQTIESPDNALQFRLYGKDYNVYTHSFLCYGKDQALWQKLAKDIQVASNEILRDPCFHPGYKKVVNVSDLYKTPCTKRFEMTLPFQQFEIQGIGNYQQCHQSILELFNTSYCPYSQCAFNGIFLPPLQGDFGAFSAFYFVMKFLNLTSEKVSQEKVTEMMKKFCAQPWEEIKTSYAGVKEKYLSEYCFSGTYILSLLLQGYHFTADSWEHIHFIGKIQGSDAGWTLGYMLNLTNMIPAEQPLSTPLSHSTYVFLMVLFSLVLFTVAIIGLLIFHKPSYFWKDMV
# Tests used:
# H520 cells = test: Cross reactivity: FACS binding to H520 cells (ENTPD3 and ENTPD8 expression); parameters: species or system human; conditions: 50 nM antibody
# Method: (§1) FACS screening: Specific binding of candidate antibodies to endogenously expressed ENTPD2 was assessed by flow cytometry. Cells were rinsed thoroughly with 1×PBS and treated with Accutase (Millipore #SCR005) to lift from growth plates and resuspended at approximately 1×10^5 cells/90 μL in 1× FACS buffer (2% FBS+0.1% NaN3 in PBS). In a 96-well U-bottom plate, 10 μL of 10× antibody solution in FACS buffer was pre-seeded and 90 μL of cell suspension was added. Cell were incubated for 30 minutes at 4° C., washed 1× with cold PBS and resuspended in 100 μL of 1:500 secondary antibody 1× FACS buffer (Allophycocyanin conjugated F(ab′)2 goat anti-human IgG, Fcγ specific; Jackson Immunoresearch, Cat#109-136-098). After additional incubation for 15 min at 4° C., cells were washed twice with PBS and resuspended in 100 μL of 1×FACS buffer with 4 μg/mL propidium iodide (Life Technologies, Cat#P3566). Geometric mean fluorescence intensity was calculated on live single cells using FlowJo software.
# H520 cells were identified as a cancer cell line with ENTPD3 (Ct 25) and ENTPD8 (Ct 26) expression by Taqman and were used for selectivity screening.
# RKO cells = biological target: T1, RKO cells; test: FACS binding to RKO cells with endogenous ENTPD2; conditions: read-out: Apparent FACS Affinity
# Method: as §1
# Human ENTPD1 = biological target: T2, Human ENTPD1; test: Cross reactivity: FACS binding to human ENTPD1 expressing NIH/3T3 cells; conditions: NIH/3T3-ENTPD1 cells, 50 nM antibody
# Method: as §1
# Cross reactivity Human ENTPD1 (NP_001767) expressing NIH/3T3 cells were generated using a retroviral transduction approach. 72 hrs post transduction, engineered cells were stained with the anti-Human CD39/ENTPD1 APC-conjugated Antibody (R&D systems, Minneapolis, Minn.) and live cells that expressed human ENTPD1 were separated from the rest of the population via fluorescence activated cell sorting. […]
# B16F10 tumor model = test: Syngeneic B16F10 tumor model, combination with anti-PD-1 Ab; tumor T cell influx by flow cytometry; type: in vivo, C57BL/6 mice
# Method: B16F10 model was established in female C57BL/6 mice by subcutaneous injection of 0.5×10^6 cells into the right flank of each mouse. On day 7 once tumors reached approximately 30 mm^3, mice were randomized according to tumor volume into treatment groups (n=10 per group). Mice received treatment of either anti-mouse ENTPD2 mAb13 at a final dose 15 mg/kg, anti-PD-1 Ab (clone RMP1-14 Bio X Cell, West Lebanon, N.H.) i.p. at a final dose of 10 mg/kg or the combination of both treatments on days 1, 5, and 8. All doses were adjusted to individual mouse body weights.
# In order to understand the impact of treatments on the tumor microenvironment, mice were euthanized on day 8 and tumors were dissociated in HyClone RPMI1640 media (GE Healthcare, Pittsburg, Pa.) using gentleMacs C-tubes (Miltenyi Biotec, Auburn, Calif.) on the gentleMacs Octo Dissociator (Miltenyi Biotec, Auburn, Calif.). Approximately 2×10^6 dissociated tumor cells were blocked with rat anti-mouse CD16/CD32 Ab (Biolegend, San Diego, Calif.) to reduce non-specific FcγRIII/II binding and subsequently stained with the following cocktail of Abs: rat anti-mouse CD45-BUV395 (clone 30-F11) (BD Biosciences, San Jose, Calif.), rat anti-mouse CD8a-BUV737 (clone 53-6.7) (BD Biosciences, San Jose, Calif.), rat anti-mouse CD4-BV510 (clone RM4-5) (BD Bioscience, San Jose, Calif.), anti-mouse CD69-PercPCy5.5 (clone H1-2F3) (Biolegend, San Diego, Calif.) and rat anti-mouse CD25-eFluor450 (clone eBio3C7) (eBioscience, San Diego, Calif.) at the manufacturers' recommended dilutions. All incubations and washes were performed in FACS Buffer composed of 1× HyClone Phosphate Buffered Saline (GE Healthcare, Pittsburg, PA), 1% HyClone Fetal Bovine Serum (GE Healthcare, Pittsburg, Pa.), 2 mM EDTA (ThermoFisher, Waltham Mass.). After staining with the cell surface antigen antibody cocktail, dissociated tumor cells were washed in FACS buffer, fixed and permeabilized using the eBioscience Foxp3/Transcription Factor Staining Buffer Kit (ThermoFisher, Waltham Mass.) to allow for intracellular staining with the mouse anti-mouse FOXP3-eFluor660 (clone 150D/E4) (eBioscience, San Diego, Calif.).
# [1] = combination with anti-PD-1 Ab, tumor, day 8
Molecule,Apparent FACS binding at 50 nM (H520 cells),EC50 (RKO cells) [nM],Apparent FACS binding at 50 nM (Human ENTPD1),"anti-tumor efficacy (B16F10 tumor model; alone, mAb13 15 mg/kg, anti-PD-1 Ab 10 mg/kg i.p., days 1, 5, 8)",tumor growth relative to No Treatment control (B16F10 tumor model; combination of mAb13 15 mg/kg and anti-PD-1 Ab 10 mg/kg),"influx of activated CD4 T-helper cells (CD45+ CD8-CD4+ FOXP3-CD69+ CD25+), increase vs No Treatment (B16F10 tumor model; [1])","influx of activated CD8 T cells (CD45+ CD4-CD8+ CD69+ CD25+), change vs No Treatment (B16F10 tumor model; [1])"
"mAb7: humanized anti-human ENTPD2 antibody from mAb17; VH SEQ ID NO: 25, VL SEQ ID NO: 78 (antibody, V domains shown) VH: QVQLVQSGAEVVKPGASVKISCKASGYTFTDYNMDWVKQAPGQRLEWIGDINPKYDISTYNQQFKGKATITVDKSASTAYMELSSLRSEDTAVYYCARRGFFLYYGINYYYFDVWGQGTLVTVSS VL: EIVLTQSPATLSASPGEEITLSCSASSSVSYIHWYQQKPGQAPRLLIYSTSNLASGIPARFSGSGSGTFYTLTISSVEPEDAAVYYCHQWSSYPWTFGGGTKLEIK",No binding,0.4,No binding,–,–,–,–
"mAb13: anti-mouse ENTPD2 antibody; HC SEQ ID NO: 193, LC SEQ ID NO: 204 (antibody) heavy: QVQLVQSGAELKQPGQSVKISCKASGYTFTHYGMNWVKQAPGQGLKWMGWINTDTGNPTYADDFKGRFVFSLDTSVSTAYLQISNLKNEDTATYYCVRYGTLYSGYGFFFDSWGQGTLVTVSSAKTTAPSVYPLAPVCGDTTGSSVTLGCLVKGYFPEPVTLTWNSGSLSSGVHTFPAVLQSDLYTLSSSVTVTSSTWPSQSITCNVAHPASSTKVDKKIEPRGPTIKPCPPCKCPAPNLLGGPSVFIFPPKIKDVLMISLSPIVTCVVVDVSEDDPDVQISWFVNNVEVHTAQTQTHREDYNSTLRVVSALPIQHQDWMSGKEFKCKVNNKDLPAPIERTISKPKGSVRAPQVYVLPPPEEEMTKKQVTLTCMVTDFMPEDIYVEWTNNGKTELNYKNTEPVLDSDGSYFMYSKLRVEKKNWVERNSYSCSVVHEGLHNHHTTKSFSRTPGK light: DIMMTQSPSSLSVSAGEKATITCKSSQSLFNSNTNKNYLNWYLQKPGQSPKLLFYYASTRHTGVPDRFIGSGSGTDFTLTITSVQDEDLADYYCQQWYSYPWTFGPGTKLEIKRADAAPTVSIFPPSSEQLTSGGASVVCFLNNFYPKDINVKWKIDGSERQNGVLNSWTDQDSKDSTYSMSSTLTLTKDEYERHNSYTCEATHKTSTSPIVKSFNRNEC",–,–,–,No significant anti-tumor efficacy,significant reduction in tumor growth,7.0 -fold,5.8 -fold
